Source: the DeepSol protein solubility set

Test: soluble on expression in E. coli; label from the status in PepcDB or PDB records

| Sequence | soluble on expression in E. coli |
| --- | --- |
| GSHMGQLGGEEWTRHGSFVNKPTRGWLHPNDKVMGPGVSYLVRYMGCVEVLQSMRALDFNTRTQVTREAISLVCEAVPGAKGATRRRKPCSRPLSSILGRSNLKFAGMPITLTVSTSSLNLMAADCKQIIANHHMQSISFASGGDPDTAEYVAYVAKDPVNQRACHILECPEGLAQDVISTIGQAFELRFKQYLR | soluble |
| MGSDKIHHHHHHMPCKNFFTTRPIMEEDCLWDKRRKIVDDLFRTVLRGNIAILLGPRRVGKTSVVNVISQKFAKRRNHHYIYFNFSRFIGARAISIADIEPKRTSLKLITTSKSYVISLKGISVEVRKTSIEEFTSDFSTLVRILSQNSERGLLIFDEAQVLARLKNLDFRGLIQEITDSYPNISMIFTGSMPGLLIEYLNPGPDKPNFMRASETFTLSRWNVEEGLEFLKKGFESYGISVRNELELERAVKELGGIPGFISYYGITVINLVRSGVPVEKALPRALEESKRYALEEWKKDLEAFLNVYNSPIYVEVMKVLASSYPTALKGAEVYRRMNRAPKRIQHIYKYLDVLEKVGFIRSEGGKYWIEDPILRELLT | not soluble |
| MGSDKIHHHHHHLDVDTGKLQSLAASRYGARGARAVDDWLQLLRNDTSASEANQLARVNAFWNQRVLSGEDTHIWGRADYWATPLETLGKGAGDCEDYVIGKYFSLISLGVPTEKLRFIYVRARIGGPYSNQQIAHMVLGYYPTPNAVPLVLDSLISTIMPANERRDLTPVFSFNADGVYVDGKQASPVDRLSRWRDLLLRMEREGLRP | not soluble |
| MSLKKKIAVVTGATGGMGIEIVKDLSRDHIVYALGRNPEHLAALAEIEGVEPIESDIVKEVLEEGGVDKLKNLDHVDTLVHAAAVARDTTIEAGSVAEWHAHLDLNVIVPAELSRQLLPALRAASGCVIYINSGAGNGPHPGNTIYAASKHALRGLADAFRKEEANNGIRVSTVSPGPTNTPMLQGLMDSQGTNFRPEIYIEPKEIANAIRFVIDAGETTQITNVDVRPRIELADRKEGHHHHHH | soluble |
| MKREQVMGEGNYSLASHHIFGVDNANKMLFSPLDNAKNGMKIYLTDKNKVYTYEIREVKRVTPDRVDEVDDRDGVNEITLVTCEDLAATERIIVKGDLKETKDYSQTSNEILTAFNQPYKQFY | not soluble |
| ELHPRTGRLVSLSACGRTARRQQPGQEFNHGLVLSREPLRDGRVFTVRIDRKVNSWSGSIEIGVTALDPSVLDFPSSATGLKGGSWVVSGCSVLRDGRSVLEEYGQDLDQLGEGDRVGVERTVAGELRLWVNGRDCGVAATGLPPRVWAVVDLYGKCTQITVL | soluble |
| MSLTPEHLPTEQYEAQLAEKVVRLQSMMAPFSDLVPEVFRSPVSHYRMRAEFRIWHDGDDLYHIIFDQQTKSRIRVDSFPAASELINQLMTAMIAGVRNNPVLRHKLFQIDYLTTLSNQAVVSLLYHKKLDDEWRQEAEALRDALRAQNLNVHLIGRATKTKIELDQDYIDERLPVAGKEMIYRQVENSFTQPNAAMNIQMLEWALDVTKGSKGDLLELYCGNGNFSLALARNFDRVLATEIAKPSVAAAQYNIAANHIDNVQIIRMAAEEFTQAMNGVREFNRLQGIDLKSYQCETIFVDPPRSGLDSETEKMVQAYPRILYISCNPETLCKNLETLSQTHKVERLALFDQFPYTHHMECGVLLTAKEGHHHHHH | soluble |
| SNAMEVMLMSKYATLKYADKNIEIELPVYSPSLGNDCIDVSSLVKHGIFTYDPGFMSTAACESKITYIDGGKGVLLHRGYPIEEWTQKSNYRTLCYALIYGELPTDEQVKSFRQEIINKMPVCEHVKAAIAAMPQHTHPMSSLIAGVNVLAAEHIHNGQKESQDEVAKNIVAKIATIAAMAYRHNHGKKFLEPKMEYGYAENFLYMMFADDESYKPDELHIKAMDTIFMLHADHEQNASTSTVRLSGSTGNSPYAAIIAGITALWGPAHGGANEAVLKMLSEIGSTENIDKYIAKAKDKDDPFRLMGFGHRVYKNTDPRATAMKKNCEEILAKLGHSDNPLLTVAKKLEEIALQDEFFIERKLFSNVDFYSGIILKAMGIPEDMFTAIFALARTSGWISQWIEMVNDPAQKIGRPRQLYTGATNRNF | soluble |
| MEKLTMQEEEVMIYIWELESCYVKDIVAKFEQPTPPYTTVASIVKNLERKKYVKAQRVGNTYLYTPSIKESEYKRSFMSGVVRNYFENSYKEMVSFFAKDQKISTNDLKEIIDMIEKGQEK | not soluble |
| MGSDKIHHHHHHMTPSTPTLATRWEPLPPRVVAELLGPSSARWWLSGGVALDHWLGTNTREHDNIDVSTTIADLPQVVQDLPAPFSAWAPSGDGVVPWAEADMDADLQPIRIHDDATGAWVMQVDVEDGTDSLWVYRRDPRLQLPWDRAVIDVDGIPTGAPEVQLVWKALRPRPEDDADKDAVLPELSNEARAWWEHAILTIHPHSSWSIHVRTPFAPGKASWNRTRR | not soluble |
| DALESKKINEALLKQGEALINQLNDRARADTVRYAEEVVKTAAERVKEASQNLTDYRIANGVFDLKAQSEVQMGLVSKLQDELIVIQTQLDQVKAVTPENPQIPGLQAREQSLRKEIDQQLRAISGGGHSSLSNQAAEYQRVYLENQLAEQQLAAAMTSLESAKVEADRQQLYLEVISQPSLPDLAHEPKR | soluble |
| MPGELDTFKEAVKIIIEKEFPELLSPARHMMRAIVIDARQSDCDLQVLAADGSPHPSFPPLANVLVPVRKSVQIGQKVRIGFYYGDPAMPYIDEVLSNGEA | not soluble |
| MAVSLFKQLQIVWDYHLVNQEIRKSDAIFVLCSYDLRVAEHAAQLYLDGYAPLLIFSGAQGRATEGLFTLSEAETFANVAKDMGVPSSAIIVETKATNTGENIFFTQALLKERNISVSSLILVQKPYMERRLLATFLKNWNDIEFCISSPNISFINYPTDEITFDHIASIILGELHRLKVYPTLGYQEAQEIPDEVWQAFENLTQLGFDEYLLTNDNLEHHHHHH | not soluble |
| MSLSVSEQLFPLTIIHLNDFHARFEETNTVSTRCKPDEGERCIGGYARVVSRVKSLQREYADRNPIYLNAGDNFQGTLWYSLLRWNVTAHFLNLLPADVMTLGNHEFEHGIGGLVPFLDVIDSPVVVTNIDDREEPTLQGKYTKSVVLERGGRKIGVVGVIHHLTNTMGMTERLRFLDEVEQLRMEIGRLKEEGVQHIVVLSHCGLEIDRIIARELPDVDVVVGGHSHTFLYNGTADGFPDDPEDTYPIVVEHPEGRTTLIVQAASYAKYVGRITLYFDEEGNIREWEGNPEFLDSSVPQDEEVLAQLAPWREQVNVQANREGHHHHHH | soluble |
| MAPVVCDVCGVRRAVVLQRHTGRRLCRECFREDIVGRVRREVERWGMIGPGETVLLGLSGGKDSYVLLDALSEIVGPSRLVAVSIVEGIPGYNREGDIEKIRRVAAARGVDVIVTSIREYVGASLYEIYSRARGRGAGHAACTYCGISRRRILALYARLYGAHKVATAHNLDDEAQTAIVNFLRGDWVGMLKTHPLYRSGGEDLVPRIKPLRKVYEWETASYVVLHRYPIQEAECPFINMNPTLRARVRTALRVLEERSPGTLLRMMERLDEELRPLAQAMKPSSLGRCERCGEPTSPKRRLCKLCELLEEAGFQEPIYAIAGRGKRLRLQSPTASPG | not soluble |
| MTKKSTIQPCLVCGQSSNSILFGAPSCRACGEFFRRKVISNFKIKNNCLGECSFAKKSMKPCQSCRFQKCLEAGMLEKMVFSRKAIYSISNFEKSILEELEEAYSKLEHGRNETFNPKSDSNPKFCSHEELNNTCTIDIQIILDNLISYFQAKKPMGKEQDDVLKMHFIVPFVLFDTAFRAIGKSSYISPDGTMFGGSYVEKLYQDSSNSKIGVNNGKTSREIMESYWKVSYKILKSEMELLQLDRSEFLLLSALIYWDFGLENQSDKCCENCNTIREKVLKELVKYERKKSGQNALRIAMIMGLLQAVPKALDVMKTCGFLSKIYNLRGSGCPLYAISTNSPPQ | not soluble |
| MKIALIGASGYVGSALLKEALSRGHHVTALVSRPERIAAQANLAAAKVDVQDSAQLAEQLKGFDAVLSAFSGHAQAEQFDYFVKGIRSIIAAAKAAQAPRLLVVGGAGSLEVAPGVQLVDTPEFPEQWKASALGAREALNLLRAETELNWTLLSPSAMLQPGQRTGQFRLGKDQLLVDAEGNSHISVEDYAVAMIDELEKGEHQRSRFTVGYLEHHHHHH | soluble |
| MGSDKIHHHHHHMLTTDNQLIRLSQGQLNLLETCPRKFQHTHLEQLNSPLDPDHTDKLTLGSRFHLLMQQQEMGLPIDSFLQADTQLQNWMSGFANAAPEILTPATDRQTFRESEHYRTLQFQDYLLTVIYDLLIADHQQAQIFDWKTYPKPPDKRKLAQNWQTRLYMYVLAETSQYSPENISMTYWFVQSQGKPQNIQFTYSHNLHTQTAKKLHQLLDQLTKWLNNYQQGTLFPQVPVNSKACDYCQFAKKCDRLLPTVGHKLNSSESNSLEITAQAINKSFPALDAIEEVSI | not soluble |
| MAHHHHHHMEKDDHYKTSEKYEICTSFENIGIDEGLLRGIYAYGFEKPSAIQQRGIKPILNGRDVILQSQSGTGKTCVFAVGALNCVNRNLNETQVIILSPTRELAEQTQKVCLALADYIHVTIYCCIGGKKMSDDIKALNNGVHVISGTPGRIYHMLNLRHLKCKYIKQLVIDEADEMLNKGFKEQVYDIYRFLSPNTQIILSSATLPQEVLEITNKFMHKPVKILVKRDELTLEGIKQFFVSIEKEQWKYETLADLYESLTITQAVVFCNTQMKVDWLTKKMLESNFTVCKMHAGMSQSERDDIMLKFRQCKFRVLISTDIWGRGLDVQEVSLVVNYDLPNSRESYIHRIGRSGRFGRKGVAINFVKNDDIKILRDIEQYYSTQIDEMPMNITELL | not soluble |
| MKKRYKNPEKSGSCGNFIQAIKMTDKVQPLESLSKKPEEPKIVVNLRRIKRKIMVMSGKGGVGKSTVAANLAVGLALRGHRVGLLDCDIHGPTVPTIFGLESARPGVSEEGILPIEVLPNLSVMSIGFLLENKDSPIIWRGPAKMGAIKQFLEEVFWGALDFLIIDLPPGTGDEPLSVAQLIPNCDGSVLVTTPQDVALISVRKSITFSEKLNVPIIGLVDNMHGLICPHCGKPIEVFGSGGVEKASKDFNIPILARLPIEPGVAEMEDRGTVVQDQLKHGTEWQKNFDNVVDAVEKILEKELEHHHHHH | soluble |
| MGSDKIHHHHHHMPPRASERSQLRGDENFVHAAHHELYNATQRRNLTKATTTIRTKRLNVTAEMPDWEAVREAGSGIKRDVGQRLDELLVQFEEAVTARGGHVHWARDAKEAGDIVTKLVEETGEKNVVKIKSMATMEIDLNNRLREAGISARETDLAELIVQLGKDKPSHILVPAIHRNRAEIRDIFIREMPNTDDSLSSEPAELAEASRSFLREQFMKAKVAISGANFGIAETGTVTIMESEGNGRMCLTLPETLISVMGIEKIIPTFQDLEVFLQLLPRSSTGERQAPYVSTWSGVTEGDGPKNFHIVLVDNGRTAVLSDEIGREALKCIRCSACLNVCPVYERAGGHAYGSTYPGPIGAILSPQMTGIKNKHDPNAYLPYASSLCGRCNEVCPVKIPFTDILLELRHKKIQTDAPKIEKAMMGAMQLAWGNSTMWNMITRMVFMGRIMGGSNGKITHLPSFLAGWTDVRDTAVPPKKSFRQWFETEEAQQLLADARRDGIHPNNPEVNQKKEN | not soluble |
| GREEAPNAEADILSCRLPGVVMTTSPIITNNSINIFVGPGTDISSLAPEFTLTPGATIDPPSGTARDFHSPQQYTVTAADGFWKKKYTVSVIDTELATIYNFEDTLGGQKYYIFVEREGEKVVMEWASGNAGYAMTGVPKTADDYPTFQFANGKTGKCLSLVTRSTGFFGSIMGMPIAAGNLFIGSFDVGNAMSNPLKATKFGLPFRHIPTYLAGYYKYKAGDQFTEGGKPVSGKRDICDIYAIMYETSESVPTLDGTNAFTSPNLVSIARIDDAKETDEWTYFKLPFHMLSGKYIDKEKLTAGKYNVAIVFTSSLEGDHFNGAIGSTLLIDEVELIYRSED | soluble |
